Earlier results, collected in patent publication US11931453B2, “Drug delivery device” (NANO PRECISION MEDICAL, INC., priority 2016, dated 2024).

Conditions: estimated, based on molecular dimensions of similar peptides (literature)

GLP-1: Glucagon-Like Peptide-1; exenatide is an analog of GLP-1
Stokes' diameter / hydrodynamic diameter: about 2.6 nm
